Data taken from publication PMC6796855.

Target: GST-ATG16L1N (human) (UniProt Q676U5)
Test: pull-down; recombinant GST fusion (2–200 nM) on glutathione resin, incubated with 1.5 mg of a 1:3.5 mixture of wild-type and ATG7 KO PC-3 lysates; 20 mM Tris-HCl pH 8.0, 200 mM NaCl, 1 mM EDTA, 0.5% NP-40; immunoblot for GST and ATG5; fraction bound quantified

Chain of GST-ATG16L1N (human) (Q676U5 1-69): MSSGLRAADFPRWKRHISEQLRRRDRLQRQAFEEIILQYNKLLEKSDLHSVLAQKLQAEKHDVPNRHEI
Chain of native ATG12–ATG5 conjugate (Q9H1Y0 whole entry): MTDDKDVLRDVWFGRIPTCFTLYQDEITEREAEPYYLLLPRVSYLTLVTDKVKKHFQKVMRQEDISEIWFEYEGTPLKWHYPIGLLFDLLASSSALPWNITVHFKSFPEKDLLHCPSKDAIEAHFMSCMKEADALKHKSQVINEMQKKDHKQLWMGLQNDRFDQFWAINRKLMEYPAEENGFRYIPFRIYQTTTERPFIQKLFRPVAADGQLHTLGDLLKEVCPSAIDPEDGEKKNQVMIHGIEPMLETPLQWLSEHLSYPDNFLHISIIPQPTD
Chain of native ATG12–ATG5 conjugate (O94817 whole entry): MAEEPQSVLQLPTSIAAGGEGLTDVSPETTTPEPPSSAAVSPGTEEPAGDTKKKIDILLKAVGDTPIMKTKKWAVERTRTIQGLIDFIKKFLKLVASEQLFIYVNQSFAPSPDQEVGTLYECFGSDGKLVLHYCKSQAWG

Substance “native ATG12–ATG5 conjugate (from UniProt Q9H1Y0 1-275; O94817 1-140) (complex)” has a fold higher affinity than unconjugated ATG5 of 10 fold.
